From FireProtDB (doi:10.1016/j.bpj.2010.04.076)

Conditions: Bacillus subtilis (strain 168), pH 7, CD, transition: 2, reversible: yes, whole UniProt chain shown

B1: Adenylate kinase wild type, P16304 (protein)
chain: MNLVLMGLPGAGKGTQGERIVEDYGIPHISTGDMFRAAMKEETPLGLEAKSYIDKGELVPDEVTIGIVKERLGKDDCERGFLLDGFPRTVAQAEALEEILEEYGKPIDYVINIEVDKDVLMERLTGRRICSVCGTTYHLVFNPPKTPGICDKDGGELYQRADDNEETVSKRLEVNMKQTQPLLDFYSEKGYLANVNGQQDIQDVYADVKDLLGGLKK
20 °C, GdnHCl, Phosphate buffer 10mM
  unfolding free energy: 3.34 kcal/mol
Thermal, KH2PO4 10mM
  Tm: 48.4 °C
